B1: library; numbered along this chain (parent)
chain: MAAAGGARLLRAASAVLGGPAGRWLHHAGSRAGSSGLLRNRGPGGSAEASRSLSVSARARSSSEDKITVHFINRDGETLTTKGKVGDSLLDVVVENNLDIDGFGACEGTLACSTCHLIFEDHIYEKLDAITDEENDMLDLAYGLTDRSRLGCQICLTKSMDNMTVRVPETVADARQSIDVGKTS

Variants of: B1
Experiment: scaled log2 fold change in cell abundance, elesclomol vs control (0 = silent mean, 1 = nonsense mean) (scaled log2 ratio); higher = higher viability under elesclomol (loss of FDX1 cuproptosis function)
Conditions: glucose 10 mM
[1] = with ABC1 FDX1 KO, elesclomol 5 nM, 14 days
[2] = with HEK293T FDX1 KO, elesclomol 40 nM, 11 days
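Note: variant abundance is its share of total variant reads in each endpoint sample, from next-generation sequencing of the integrated ORF PCR-amplified out of genomic DNA.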

Variant	scaled log2 fold change [1]	scaled log2 fold change [2]
MAAAGGARLLRAASAVLGGPAGRWLHHAGSRAGSSGLLRNRGPGGSAEASRSLSVSARARSSSEDKITVHFINRDGETLTTKGKVGDSLLDVVVENNLDIDGFGACEGTLACSTCHLIFEDHIYEKLDAITDEENDMLDLAYGLTDRSRLGVQICLTKSMDNMTVRVPETVADARQSIDVGKTS [C152V]	1.23	1.12
MAAAGGARLLRAASAVLGGPAGRWLHHAGSRAGSSGLLRNRGPGGSAEASRSLSVSARARSSSEDKITVHFINRDGETLTTKGKVGDSLLDVVVENNLDIDGFGACEGTLACSTCHLIFEDHIYEKLDAITDEENDMLDLAYGLTDRSRLGWQICLTKSMDNMTVRVPETVADARQSIDVGKTS [C152W]	1.13	1.28
MAAAGGARLLRAASAVLGGPAGRWLHHAGSRAGSSGLLRNRGPGGSAEASRSLSVSARARSSSEDKITVHFINRDGETLTTKGKVGDSLLDVVVENNLDIDGFGACEGTLACSTCHLIFEDHIYEKLDAITDEENDMLDLAYGLTDRSRLGTQICLTKSMDNMTVRVPETVADARQSIDVGKTS [C152T]	1.06	1.22
MAAAGGARLLRAASAVLGGPAGRWLHHAGSRAGSSGLLRNRGPGGSAEASRSLSVSARARSSSEDKITVHFINRDGETLTTKGKVGDSLLDVVVENNLDIDGFGACEGTLACSTCHLIFEDHIYEKLDAITDEENDMLDLAYGLTDRSRLGPQICLTKSMDNMTVRVPETVADARQSIDVGKTS [C152P]	1.08	1.13
MAAAGGARLLRAASAVLGGPAGRWLHHAGSRAGSSGLLRNRGPGGSAEASRSLSVSARARSSSEDKITVHFINRDGETLTTKGKVGDSLLDVVVENNLDIDGFGACEGTLACSTCHLIFEDHIYEKLDAITDEENDMLDLAYGLTDRSRLGYQICLTKSMDNMTVRVPETVADARQSIDVGKTS [C152Y]	1.15	1.64
MAAAGGARLLRAASAVLGGPAGRWLHHAGSRAGSSGLLRNRGPGGSAEASRSLSVSARARSSSEDKITVHFINRDGETLTTKGKVGDSLLDVVVENNLDIDGFGACEGTLACSTCHLIFEDHIYEKLDAITDEENDMLDLAYGLTDRSRLGNQICLTKSMDNMTVRVPETVADARQSIDVGKTS [C152N]	1	2.21
MAAAGGARLLRAASAVLGGPAGRWLHHAGSRAGSSGLLRNRGPGGSAEASRSLSVSARARSSSEDKITVHFINRDGETLTTKGKVGDSLLDVVVENNLDIDGFGACEGTLACSTCHLIFEDHIYEKLDAITDEENDMLDLAYGLTDRSRLGRQICLTKSMDNMTVRVPETVADARQSIDVGKTS [C152R]	1.08	1.5
MAAAGGARLLRAASAVLGGPAGRWLHHAGSRAGSSGLLRNRGPGGSAEASRSLSVSARARSSSEDKITVHFINRDGETLTTKGKVGDSLLDVVVENNLDIDGFGACEGTLACSTCHLIFEDHIYEKLDAITDEENDMLDLAYGLTDRSRLGSQICLTKSMDNMTVRVPETVADARQSIDVGKTS [C152S]	1.17	1.18
MAAAGGARLLRAASAVLGGPAGRWLHHAGSRAGSSGLLRNRGPGGSAEASRSLSVSARARSSSEDKITVHFINRDGETLTTKGKVGDSLLDVVVENNLDIDGFGACEGTLACSTCHLIFEDHIYEKLDAITDEENDMLDLAYGLTDRSRLGQQICLTKSMDNMTVRVPETVADARQSIDVGKTS [C152Q]	1.01	1.18
MAAAGGARLLRAASAVLGGPAGRWLHHAGSRAGSSGLLRNRGPGGSAEASRSLSVSARARSSSEDKITVHFINRDGETLTTKGKVGDSLLDVVVENNLDIDGFGACEGTLACSTCHLIFEDHIYEKLDAITDEENDMLDLAYGLTDRSRLGCHICLTKSMDNMTVRVPETVADARQSIDVGKTS [Q153H]	0.41	-0.0151
MAAAGGARLLRAASAVLGGPAGRWLHHAGSRAGSSGLLRNRGPGGSAEASRSLSVSARARSSSEDKITVHFINRDGETLTTKGKVGDSLLDVVVENNLDIDGFGACEGTLACSTCHLIFEDHIYEKLDAITDEENDMLDLAYGLTDRSRLGCDICLTKSMDNMTVRVPETVADARQSIDVGKTS [Q153D]	0.674	0.615
MAAAGGARLLRAASAVLGGPAGRWLHHAGSRAGSSGLLRNRGPGGSAEASRSLSVSARARSSSEDKITVHFINRDGETLTTKGKVGDSLLDVVVENNLDIDGFGACEGTLACSTCHLIFEDHIYEKLDAITDEENDMLDLAYGLTDRSRLGCCICLTKSMDNMTVRVPETVADARQSIDVGKTS [Q153C]	-0.163	-0.668
MAAAGGARLLRAASAVLGGPAGRWLHHAGSRAGSSGLLRNRGPGGSAEASRSLSVSARARSSSEDKITVHFINRDGETLTTKGKVGDSLLDVVVENNLDIDGFGACEGTLACSTCHLIFEDHIYEKLDAITDEENDMLDLAYGLTDRSRLGCEICLTKSMDNMTVRVPETVADARQSIDVGKTS [Q153E]	0.283	1.2
MAAAGGARLLRAASAVLGGPAGRWLHHAGSRAGSSGLLRNRGPGGSAEASRSLSVSARARSSSEDKITVHFINRDGETLTTKGKVGDSLLDVVVENNLDIDGFGACEGTLACSTCHLIFEDHIYEKLDAITDEENDMLDLAYGLTDRSRLGCAICLTKSMDNMTVRVPETVADARQSIDVGKTS [Q153A]	0.0247	-0.209
MAAAGGARLLRAASAVLGGPAGRWLHHAGSRAGSSGLLRNRGPGGSAEASRSLSVSARARSSSEDKITVHFINRDGETLTTKGKVGDSLLDVVVENNLDIDGFGACEGTLACSTCHLIFEDHIYEKLDAITDEENDMLDLAYGLTDRSRLGCFICLTKSMDNMTVRVPETVADARQSIDVGKTS [Q153F]	0.595	0.361
MAAAGGARLLRAASAVLGGPAGRWLHHAGSRAGSSGLLRNRGPGGSAEASRSLSVSARARSSSEDKITVHFINRDGETLTTKGKVGDSLLDVVVENNLDIDGFGACEGTLACSTCHLIFEDHIYEKLDAITDEENDMLDLAYGLTDRSRLGCGICLTKSMDNMTVRVPETVADARQSIDVGKTS [Q153G]	0.48	-0.652

Reference: the supplement of paper PMC12855868
